Reference: the RNAGym collection of RNA variant scans (doi:10.7554/elife.90254)

B1: LINE1-mini (parent)
chain: GGCAGAGCUCAACACAGCGUGGCAAAGUGGCUGUGGCUAGACUGCC

Variants of: B1
Assay: self-cleavage, relative activity (ratio to wild type); higher = more cleavage; in vitro, sequencing; the parent is a self-cleaving ribozyme

Row | Variant | self-cleavage
1 | GGCAGACCUCAACACAGCGUGGCAAAGUGGCUGUAGCUAGACUGCC | 0.08
2 | GGCAGAGCUCAACACAGCGUGGAAAAGUAGCUGUGGCUAGACUGCC | 0.91
3 | GGCAGAGCUCAACACAGCGUGGCAUAGUGGCUGUGGCUACACUGCC | 0.09
4 | GGCAGAGCUCAACUCAGCGUGGCAAAGUGACUGUGGCUAGACUGCC | 0.18
5 | GGCAGAGCUCAACACAGCGUGUCAAAGUGGCUGUGGCUAGACUGCA | 1.15
6 | GGCAGAGCUCAACACAGCGUGGUAAAGUGGCUGUGACUAGACUGCC | 0.14
7 | GGCAGAGCUCAACACAGCGUUGCAAAGUGGGUGUGGCUAGACUGCC | 0.08
8 | GGCAGAGGUCAACACAGCGUGGCAAAGUGGCUUUGGCUAGACUGCC | 0.03
9 | GGCGGAGCUCAACACAGCGUGGCAAAGUGGCUGUGGCUAGAAUGCC | 0.09
10 | GGCAGAGCUCAACACAGCGUGGCAACGUGGCUGUGGCGAGACUGCC | 0.03
11 | GGCAGAGCUCAACAGAGCGUGGCAAAGUGGCCGUGGCUAGACUGCC | 0.03
12 | GGCUGAGCUCAACACAGCGUGGAAAAGUGGCUGUGGCUAGACUGCC | 0.16
13 | GACAGAGCUCAACACAGCGUGGCAAAGUAGCUGUGGCUAGACUGCC | 0.61
14 | GGCAUAGCUCAACAUAGCGUGGCAAAGUGGCUGUGGCUAGACUGCC | 0.08
15 | GGCAGAGCUCUACACAGCGUGGCCAAGUGGCUGUGGCUAGACUGCC | 0.15
16 | GGCAGAGCUCAACAGAGCGUGGCAAAGUGGCUUUGGCUAGACUGCC | 0.36
17 | CGCAGAGCUCAACACAGCGUGGCUAAGUGGCUGUGGCUAGACUGCC | 0.2
18 | GGCAGAGCUCAACACAGCGUGGCAAAGGGGCUCUGGCUAGACUGCC | 0.05
19 | GGCAGAGCUCAACACAGCGUGGCAAAGUGCCUGUGGCUAGAAUGCC | 0.12
20 | GGCAGAGCUCAACACAGCGUGGCAAAGUGGCUUUGGCUAGACUGAC | 0.05
21 | GACAGAGCUCAACACAGCGUGGCAAAGUGGCUGUGACUAGACUGCC | 0.69
22 | GGCAGAGCUCAACACAGCGUGUCAAAGUGGCUGGGGCUAGACUGCC | 0.26
23 | GGCAGAGCUGAACACAGCGCGGCAAAGUGGCUGUGGCUAGACUGCC | 0.07
24 | GGCAGAGUUCAACACAGCGUGGCAAAGUGGCUGUGGCCAGACUGCC | 0.22
25 | GGCAGAGGUCAUCACAGCGUGGCAAAGUGGCUGUGGCUAGACUGCC | 0.13
26 | GGCAGAGCUCAACACAGCGUGGCAAAGUAGCUGUUGCUAGACUGCC | 0.15
27 | GGCAGAGCACAACAUAGCGUGGCAAAGUGGCUGUGGCUAGACUGCC | 0.17

Row | Variant | self-cleavage
28 | GGCAGAGCUCAACACAGCGUGUCAAAGUGGCUGUUGCUAGACUGCC | 0.39
29 | GGCAGAGCUCAACACAGCGUGACAAAGUGGCUGUGGCUAGACUCCC | 0.23
30 | GGCGGAGCUCAACACAGCGUGGCAAAGUGGCUGUGGCUAGGCUGCC | 0.11
31 | GGCAGAGCUCAACACAGCAUGGCAAAGUUGCUGUGGCUAGACUGCC | 0.94
32 | GGCAGCGGUCAACACAGCGUGGCAAAGUGGCUGUGGCUAGACUGCC | 0.07
33 | GGCCGAGCUCAACACAGCGUGGCAAAGUGGCUGUGGCUAGAAUGCC | 0.13
34 | GGCAGAGCUCAACACAGCGUGACAAAGUGGCUGUGGCCAGACUGCC | 0.68
35 | GGCAGAGCUCAACACAGCGUGGCAAAGUGGCUGUGGCUAGGUUGCC | 0.11
36 | GGCAGAGCUCAACACAGCGUGGCAAAGUGGGUGUGGCUAUACUGCC | 0.03
37 | GGCAGACCUCAACACAGCGUGGCAAAGCGGCUGUGGCUAGACUGCC | 0.1
38 | GGCAGAGCUCAACACAGCGUGGCAAAUUGGUUGUGGCUAGACUGCC | 0.33
39 | GGCAGAGCUCAACACAGCGUAGCAAGGUGGCUGUGGCUAGACUGCC | 1.94
40 | GGCACAGGUCAACACAGCGUGGCAAAGUGGCUGUGGCUAGACUGCC | 0.07
41 | GGCAGAGCUCAACACAGCGUGGCAAACUGGCUGUGGCUAUACUGCC | 0.12
42 | GGCAGAGCUCAACACAGCGUGGCAAAGUGGCUGUGGCUAGUCCGCC | 0.09
43 | GGCCGAGCUCAACACAGCGUGGCAAAGUGGCUGUUGCUAGACUGCC | 0.18
44 | GGCCGAGCUCAACACAGCGUGGCAAAGUGGCUCUGGCUAGACUGCC | 0.04
45 | GGCAGAGAUCAACACAGCGUGGCAAAGUGGAUGUGGCUAGACUGCC | 0.36
46 | GGCAGAGCUCAACACAGCGUGGCAAAGUGGCUGUGGCUAGGCCGCC | 0.04
47 | GGCAGAGCUCAACACAGCGUGGCAAGGUGGCUGUGGCUAGACUGCU | 0.58
48 | GGCGGAGCUCAACACAGCGUGGCAAAGUGGUUGUGGCUAGACUGCC | 0.14
49 | GGCAGAGCUCAACACAGCGUGGUAAAGUGGCUGUGGCUAGACUGCA | 1.4
50 | GGCAGAGAUCAACACAGCGUGGCAAAGUGGCUGUGGCUAGACGGCC | 0.11
51 | GGCAGAGCUCAACACAGCGUGGCAAAGUGGCUGUGGCUAGACUGAG | 0.36
52 | GGCACAGCUCAACUCAGCGUGGCAAAGUGGCUGUGGCUAGACUGCC | 0.06
53 | GGCAGAGCUCAACCCAGCGUGGCAAAGUGGCUGAGGCUAGACUGCC | 0.07
